Test results taken from CN116284407A (SUNSHINE GUOJIAN PHARMACEUTICAL SHANGHAI CO LTD, dated 2023).

What was measured:
人GUCY2C-His蛋白 = target: T1, 人GUCY2C-His蛋白 (human, UniProt P25092 24-430); experiment: ELISA, GUCY2C-His coated at 0.1 ug/mL, HRP anti-mouse secondary (Table 3)
T1 construct: extracellular domain

[1] = target: T2, 人GUCY2C on cells (人结肠癌细胞CW2; GUCY2C过表达肿瘤细胞CW2-GCC#1) (human, UniProt P25092 24-1073); experiment: flow cytometry on CW2 human colon cancer cells, PE anti-mouse secondary
T2 construct: whole, on cells; the gene put into CW2-GCC#1 is only called GUCY2C

人GUCY2C-Fc蛋白 = target: T3, 人GUCY2C-Fc蛋白 (human, UniProt P25092 24-430); experiment: indirect ELISA, GUCY2C-Fc coated at 1 ug/mL, HRP anti-mouse IgG
T3 construct: extracellular domain; not shown: human IgG1 Fc at the C-terminus
T3 sequence (P25092 24-430): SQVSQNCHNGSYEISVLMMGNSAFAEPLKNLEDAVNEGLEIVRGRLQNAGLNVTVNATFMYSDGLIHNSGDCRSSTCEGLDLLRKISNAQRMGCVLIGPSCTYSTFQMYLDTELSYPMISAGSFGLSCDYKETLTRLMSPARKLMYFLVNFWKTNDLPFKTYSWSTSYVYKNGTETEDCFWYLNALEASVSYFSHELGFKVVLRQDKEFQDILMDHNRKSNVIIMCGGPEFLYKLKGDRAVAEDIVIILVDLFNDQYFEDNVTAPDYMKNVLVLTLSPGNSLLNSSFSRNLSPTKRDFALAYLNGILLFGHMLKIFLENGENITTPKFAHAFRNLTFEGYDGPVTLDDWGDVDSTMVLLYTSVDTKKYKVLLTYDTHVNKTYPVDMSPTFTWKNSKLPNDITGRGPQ

T2 sequence (P25092 24-1073): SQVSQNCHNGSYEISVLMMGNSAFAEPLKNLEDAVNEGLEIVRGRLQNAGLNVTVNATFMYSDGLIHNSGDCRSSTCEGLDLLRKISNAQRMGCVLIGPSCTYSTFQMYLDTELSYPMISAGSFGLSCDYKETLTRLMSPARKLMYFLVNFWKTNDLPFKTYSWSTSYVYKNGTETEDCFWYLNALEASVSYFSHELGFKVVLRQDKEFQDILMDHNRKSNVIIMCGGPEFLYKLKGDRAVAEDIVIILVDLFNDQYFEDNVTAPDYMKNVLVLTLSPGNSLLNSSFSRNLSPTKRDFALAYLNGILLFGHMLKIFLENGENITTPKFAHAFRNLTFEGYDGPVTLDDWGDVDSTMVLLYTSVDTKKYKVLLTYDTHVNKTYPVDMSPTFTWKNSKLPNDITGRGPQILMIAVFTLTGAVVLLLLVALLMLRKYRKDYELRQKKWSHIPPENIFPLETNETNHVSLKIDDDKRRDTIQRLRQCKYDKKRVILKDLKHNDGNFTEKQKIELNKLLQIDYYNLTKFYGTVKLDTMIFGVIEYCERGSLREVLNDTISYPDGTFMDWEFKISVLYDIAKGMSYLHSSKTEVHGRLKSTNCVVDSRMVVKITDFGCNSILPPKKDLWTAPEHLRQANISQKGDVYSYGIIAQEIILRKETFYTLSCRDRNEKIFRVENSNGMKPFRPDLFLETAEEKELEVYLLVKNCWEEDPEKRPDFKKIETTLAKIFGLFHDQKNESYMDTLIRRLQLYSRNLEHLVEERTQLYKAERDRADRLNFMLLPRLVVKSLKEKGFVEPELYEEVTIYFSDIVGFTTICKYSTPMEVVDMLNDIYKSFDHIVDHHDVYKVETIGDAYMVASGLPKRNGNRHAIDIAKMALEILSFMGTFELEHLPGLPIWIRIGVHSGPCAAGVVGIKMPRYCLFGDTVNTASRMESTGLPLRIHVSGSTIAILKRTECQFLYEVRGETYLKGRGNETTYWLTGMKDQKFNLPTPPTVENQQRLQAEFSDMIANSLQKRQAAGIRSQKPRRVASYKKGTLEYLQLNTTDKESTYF
T1 sequence (P25092 other isoform, or with tags, fused parts or gaps): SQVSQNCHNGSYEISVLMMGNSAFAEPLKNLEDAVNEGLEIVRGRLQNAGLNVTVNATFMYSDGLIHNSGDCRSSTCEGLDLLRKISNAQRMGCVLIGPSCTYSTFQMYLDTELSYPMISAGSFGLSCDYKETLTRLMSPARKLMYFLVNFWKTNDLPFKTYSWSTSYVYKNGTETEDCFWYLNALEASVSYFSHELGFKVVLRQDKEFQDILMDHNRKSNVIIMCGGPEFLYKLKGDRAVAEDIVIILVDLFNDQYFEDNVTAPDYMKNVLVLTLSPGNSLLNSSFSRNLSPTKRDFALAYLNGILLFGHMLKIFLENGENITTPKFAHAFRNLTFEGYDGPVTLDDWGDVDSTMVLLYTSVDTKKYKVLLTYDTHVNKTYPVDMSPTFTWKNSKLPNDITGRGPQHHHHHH

B1: 55G7A7H2 (antibody, V domains shown)
VH: QVQLQQSGADLARPGASVKMSCKASGYTFTSYTMHWVKQRPGQGLEWIGYINPSSGYTNYNQKFQDKATLTADKSSSTAYMQLSSLTSEDSAVYYCARLGRIGVYWGQGTTLTVSS
VL: QIVLSQSPAILSAFPGEKVTLTCRASSSVSFIHWYQQKPGSSPKPWIYATSNLASGVPDRFSGSGSGTSFSFTISRVEAEDAATYYCQQWSSNPWTFGGGTKLEIK
**Q.** Which EC50 (人GUCY2C-His蛋白) does the source give for B1 here?
**A.** 0.12 nM

**Q.** And the EC50 [1]?
**A.** 6.27 µg/mL

**Q.** What about the EC50 (人GUCY2C-Fc蛋白) of the same binder?
**A.** 0.0215 µg/mL
